Experimental findings from patent US20190062422A1 (MorphoSys, published 2019) are described below.

To fix the notation:
B1: mouse IL17C (ligand, UniProt Q8K4C5 17-194, looked up)
chain: DPPSWGKPRSHRTLRCYSAEELSHGQAPPHLLTRSARWEQALPVALVASLEATGHRRQHEGPLAGTQCPVLRPEEVLEADTHERSISPWRYRIDTDENRYPQKLAVAECLCRGCINAKTGRETAALNSVQLLQSLLVLRRQPCSRDGTADPTPGSFAFHTEFIRVPVGCTCVLPRSTQ
modifications: biotinylated in the receptor interaction, inhibition and serum stability assays (sites not given)
notes: Bought recombinant protein; About 22 kDa reduced and about 40 kDa non-reduced on SDS-PAGE; Used plain (coated, ELISA) or biotinylated; also called biotinylated mouse IL17C; biotin-IL17C

The target in one experiment is T1, mouse IL-17RB (mouse, UniProt Q9JIP3 18-286).
T1 construct: extracellular domain; also called IL17 receptor B
T1 sequence (looked up): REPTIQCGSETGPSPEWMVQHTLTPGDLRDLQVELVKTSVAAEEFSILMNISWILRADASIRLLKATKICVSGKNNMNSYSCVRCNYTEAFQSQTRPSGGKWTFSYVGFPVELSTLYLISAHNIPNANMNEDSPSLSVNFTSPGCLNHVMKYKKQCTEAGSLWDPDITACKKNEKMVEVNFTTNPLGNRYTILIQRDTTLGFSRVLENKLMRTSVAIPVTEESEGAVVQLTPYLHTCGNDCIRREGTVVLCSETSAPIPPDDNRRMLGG
Briefly: MSD receptor interaction assay, coated receptor, biotinylated mouse IL17C, streptavidin detection. The method, then:
To test binding of mouse IL17 to its putative receptor, IL17 receptor E an interaction assay was set up. The assay setup is depicted in FIG. 1A. In brief, IL17 receptors B and E were coated on a Multi-array® 384-well plate Standard plate (Meso Scale Discovery; #L21XA-4) and biotinylated mouse IL17C was added. Binding of mouse IL17C to its receptor was measured via binding of Streptavidin in a MSD Sector Imager 6000 (Meso Scale Discovery, Gaithersburg, Md., USA).

The target in experiment [1] is T2, human IL17C (human, UniProt Q9P0M4 19-197).
T2 sequence: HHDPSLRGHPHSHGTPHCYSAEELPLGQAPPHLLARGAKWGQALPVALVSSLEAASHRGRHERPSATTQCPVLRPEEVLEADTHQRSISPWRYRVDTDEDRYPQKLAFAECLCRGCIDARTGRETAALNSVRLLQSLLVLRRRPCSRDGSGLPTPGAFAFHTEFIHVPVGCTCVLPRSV
The experiment can be described thus: ELISA, purified chimeric human/mouse IgG2a on huIL-17C.

Experiment [2] addresses B1. Briefly: solution equilibrium titration (SET), ECL based, monovalent Fab fragment (Fab_FH format). The procedure: Monovalent affinities of anti-IL17C antibodies were determined by solution equilibrium titration (SET) using Fab fragments. Affinity determination in solution was basically performed as described in the literature (Friquet et al., (1985) J. Immunol. Meth. 77: 305-19). In order to improve the sensitivity and accuracy of the SET method, it was transferred from classical ELISA to ECL based technology (Haenel et al. (2005) Anal Biochem. 339.1: 182-84). Binders were expressed and purified in Fab_FH format.

Experiment [3] deals with T3, mouse IL-17B (mouse, UniProt Q9QXT6 23-180, limits assumed).
T3 sequence (looked up): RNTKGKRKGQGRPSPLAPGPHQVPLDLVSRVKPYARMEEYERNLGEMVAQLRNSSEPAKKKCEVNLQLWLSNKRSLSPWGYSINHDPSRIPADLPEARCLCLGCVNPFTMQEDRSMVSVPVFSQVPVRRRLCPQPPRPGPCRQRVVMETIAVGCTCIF
The experiment can be described thus: ELISA, purified chimeric human/mouse IgG2a on msIL-17B.

Experiment [4] deals with B1. Briefly: ELISA, purified chimeric human/mouse IgG2a titrated on mouse IL17C, n=1-2. The procedure: All purified chimeric human-mouse chimeric IgG2a antibodies were titrated on mouse IL17C for EC₅₀ determination in ELISA starting with a concentration of 100 nM. EC₅₀ values on mouse IL17C were determined in 1 to 3 independent experiments.
The target of experiment [5] is B1. The experiment can be described thus: mIL17C - mIL-17RE inhibition assay (MSD): human/mouse IgG2a pre-incubated with biotinylated mouse IL17C, binding to coated mouse IL17RE/Fc detected by Streptavidin-ECL. The procedure: To determine inhibitory activity of purified anti-IL17C human-mouse chimeric IgG2a in a mIL-17 RE interaction assay, Maxisorp™ 384 well MSD plates were coated with 30 μL mouse IL17RE/Fc at 75 ng/mL in PBS at 4° C. overnight. The next day 25 μL of a serial antibody dilution (concentrations from 0.001 to 100 nM) were pre-incubated for 30 min at RT with an equal volume of biotinylated mouse IL17C at 0.125 nM. After blocking of plates for 1 h with 2.5% BSA in PBST, preformed antibody-ligand complexes were added for 1 h to coated IL17RE/Fc and receptor binding was detected via Streptavidin-ECL using MSD Sector Imager.
To characterize the antibodies in human/mouse IgG2a format in more detail, for each candidate IC₅₀ values were determined in the IL-17 receptor E inhibition assay as described herein above in up to 4 independent experiments.

For experiment [6], the target named is B1. Briefly: ELISA on biotin-IL17C captured on avidin: chimeric IgG2a incubated 24 h at 37°C in mouse serum against freshly diluted IgG2a. The procedure: 96 well Maxisorp plates (Nunc; #442404) were coated with avidin at a concentration of 1 μg/ml in PBS overnight at 4° C. The next day, anti-IL17 chimeric IgG2a were incubated in mouse serum for 24 h at 37° C. at a final concentration 100 μg/mL. After the incubation step the antibodies were diluted 1:100 in LowCross buffer (Candor Bioscience; #100500). As a reference the same set of antibodies were freshly diluted in LowCross buffer+1% mouse serum and incubated for 30 min at RT. Avidin coated plates were incubated with blocking buffer (Superblock blocking buffer from Pierce, #37515) and subsequently 100 μL of 0.1 μg/mL biotin-IL17C in LowCross buffer was added to blocked wells. After a washing step a serial dilution of the serum-incubated and freshly diluted IgGs was added. Binding of IgGs was detected by anti-mouse-IgG2a POD conjugated detection antibody (diluted 1:5000 in LowCross buffer) using TMB One Component HRP as substrate. The reaction was stopped by adding 1M HCl and absorbance was measured at 450 nm.

In experiment [7] the target is T2, human IL17C. Briefly: ELISA, purified chimeric IgG2a.
In experiment [8] the target is T3, mouse IL-17B. Briefly: ELISA, purified chimeric IgG2a.

In the case of B1, the binding result with mouse IL-17RB is given as “no binding”.

B2: MOR12754 (antibody, V domains shown)
VH: EVQLLESGGGLVQPGGSLRLSCAASGFTFSDYAMTWVRQAPGKGLEWVSVISYDGSLTYYADSVKGRFTISRDNSKNTLYLQMNSLRAEDTAVYYCARDPGVWWLSYLDYWGQGTLVTVSS
VL: DIQMTQSPSSLSASVGDRVTITCRASQDIISYLAWYQQKPGKAPKLLIYGASNLQGGVPSRFSGSGSGTDFTLTISSLQPEDFAVYYCQQYMIAPPNTFGQGTKVEIKR
notes: Tested as human-mouse chimeric IgG2a (human variable, mouse constant regions); Potential N-linked glycosylation sites were removed by site-directed mutagenesis
In the case of B2, the binding result with human IL17C [1] and in the experiment with mouse IL-17B [3] was “no binding” each time. The molecule further registered a Kd with mouse IL17C [2] of 4.1 nM. This molecule gave a 50% effective concentration (EC50) with mouse IL17C [4] of 0.4 nM. Besides, in the experiment with mouse IL17C [5], the IC50 was 8.44 nM. For the same molecule, in the experiment with mouse IL17C [6], the “Coefficient of variation (Mouse Serum Stability Assay 24h/37°C)” value (shortened to “Coefficient of variation”) was 17%.

B3: MOR12743 (antibody, V domains shown)
VH: QVQLVQSGAEVKKPGASVKVSCKASGYTFTSNFIHWVRQAPGQGLEWMGWISPYNGDTNYAQKFQGRVTMTRDTSISTAYMELSRLRSEDTAVYYCARESVYYGSDYGYNGMDIWGQGTLVTVSS
VL: DIELTQPPSVSVSPGQTASITCSGDNLGEEYVSWYQQKPGQAPVLVIYDDTKRPSGIPERFSGSNSGNTATLTISGTQAEDEADYYCASWDLWSVEVFGGGTKLTVLG
notes: Tested as human-mouse chimeric IgG2a (human variable, mouse constant regions); Potential N-linked glycosylation sites were removed by site-directed mutagenesis; also called MOR12743_h/m; MOR1243
On to B3, for which the binding result with human IL17C [1] and with mouse IL-17B [3] was “no binding” throughout. Also, the Kd in the experiment with mouse IL17C [2] turned out to be 0.048 nM. In the experiment with mouse IL17C [4], the response was half-maximal at 0.3 nM (EC50). The same molecule returned a half-inhibitory concentration (IC50) in the experiment with mouse IL17C [5] of 0.016 nM. Also, the “Coefficient of variation” value in the experiment with mouse IL17C [6] stood at 2.88%.

B4: MOR12753 (antibody, V domains shown)
VH: QVQLQQSGPGLVKPSQTLSLTCAISGDSVSSSSAAWNWIRQSPSRGLEWLGRIEYRSKWYNDYAVSVKSRITINPDTSKNQFSLQLNSVTPEDTAVYYCAREMYYYSGYGVFDVWGQGTLVTVSS
VL: DIELTQPPSVSVSPGQTASITCSGDALGGEYVHWYQQKPGQAPVLVIYDDDKRPSGIPERFSGSNSGNTATLTISGTQAEDEADYYCSSFDTWTSYVFGGGTKLTVLG
notes: as for B2
With B4, binding in the experiment with mouse IL17C [2] was characterised by a dissociation constant (Kd) of 0.062 nM. Besides, the binding result with human IL17C [7] and with mouse IL-17B [8] was “no binding” each time.

B5: MOR12746 (antibody, V domains shown)
VH: QVQLVQSGAEVKKPGASVKVSCKASGYTFTSNFIHWVRQAPGQGLEWMGWISPYNGDTNYAQKFQGRVTMTRDTSISTAYMELSRLRSEDTAVYYCARESVYYGSDYGYNGMDIWGQGTLVTVSS
VL: DIELTQPPSVSVSPGQTASITCSGDNLGEEYVSWYQQKPGQAPVLVIYDDTKRPSGIPERFSGSNSGNTATLTISGTQAEDEADYYCSSWTHFSNIVFGGGTKLTVLG
notes: as for B2
On to B5, for which the binding result with human IL17C [1] and with mouse IL-17B [3] was “no binding” each time. The molecule also yielded a dissociation constant Kd with mouse IL17C [2] of 0.056 nM. This molecule displayed a concentration for a half-maximal effect (EC50) with mouse IL17C [4] of 0.38 nM. This molecule had an IC50 in the experiment with mouse IL17C [5] of 0.023 nM. Further, the “Coefficient of variation” value with mouse IL17C [6] turned out to be 7.36%.

B6: MOR12745 (antibody, V domains shown)
VH: QVQLVQSGAEVKKPGASVKVSCKASGYTFTSNFIHWVRQAPGQGLEWMGWISPYNGDTNYAQKFQGRVTMTRDTSISTAYMELSRLRSEDTAVYYCARESVYYGSDYGYNGMDIWGQGTLVTVSS
VL: DIELTQPPSVSVSPGQTASITCSGDNLGEEYVSWYQQKPGQAPVLVIYDDTKRPSGIPERFSGSNSGNTATLTISGTQAEDEADYYCSAWATWSVAVFGGGTKLTVLG
notes: as for B2
B6: the binding result in the experiment with human IL17C [1] and with mouse IL-17B [3] was “no binding” each time. Also, the dissociation constant (Kd) with mouse IL17C [2] amounted to 0.075 nM. In addition, in the experiment with mouse IL17C [4], the concentration for a half-maximal effect (EC50) is 0.4 nM. Also, in the experiment with mouse IL17C [5], the IC50 was found to be 0.013 nM. Besides, the “Coefficient of variation” value with mouse IL17C [6] stood at 15.9%.

B7: MOR12744 (antibody, V domains shown)
VH: QVQLVQSGAEVKKPGASVKVSCKASGYTFTSNFIHWVRQAPGQGLEWMGWISPYNGDTNYAQKFQGRVTMTRDTSISTAYMELSRLRSEDTAVYYCARESVYYGSDYGYNGMDIWGQGTLVTVSS
VL: DIELTQPPSVSVSPGQTASITCSGDNLGEEYVSWYQQKPGQAPVLVIYDDTKRPSGIPERFSGSNSGNTATLTISGTQAEDEADYYCASWAFYSSQVFGGGTKLTVLG
notes: as for B2
B7: the binding result with human IL17C [1] and with mouse IL-17B [3] was “no binding” in each case. In the experiment with mouse IL17C [2], this molecule yielded a dissociation constant Kd of 0.053 nM. A half-maximal effect in the experiment with mouse IL17C [4] (EC50) was put at 0.28 nM. The half-maximal inhibitory concentration (IC50) with mouse IL17C [5] was determined as 0.012 nM. In addition, the “Coefficient of variation” value with mouse IL17C [6] stood at 11.8%.

B8: MOR12742 (antibody, V domains shown)
VH: QVQLVQSGAEVKKPGSSVKVSCKASGGTFSSYGISWVRQAPGQGLEWMGRIIPIFGTAYYAQKFQGRVTITADESTSTAYMELSSLRSEDTAVYYCARDMRYHDYWPYYYGSDQFDVWGQGTLVTVSS
VL: DIVLTQPPSVSGAPGQRVTISCSGSSSNIGSDIVSWYQQLPGTAPKLLIYYNNLRPSGVPDRFSGSKSGTSASLAITGLQAEDEADYYCQSWDWASLAMVFGGGTKLTVLG
notes: as for B2
Turning to B8, the binding result with human IL17C [7] and with mouse IL-17B [8] was “no binding” in each case.
